Experimental data reported in paper PMC3834822, “Structure of an ‘open’ clamp type II topoisomerase-DNA complex provides a mechanism for DNA capture and transport”.

B1: 34mer V-site DNA (dsDNA)
DNA 1: CAAAGGCGGTAATACGGTTATCCACAGAATCAGG
DNA 2: CCTGATTCTGTGGATAACCGTATTACCGCCTTTG
B2: 26mer E-site DNA (dsDNA)
DNA 1: AGGTCATGAATGACTATGCACGTAAA
DNA 2: TTTACGTGCATAGTCATTCATGACCT

Legend:
[1] = molecular target: ParE-ParC55 fusion protein (topo IV) (Streptococcus pneumoniae 7785, UniProt Q59961 1-647+P72525:1-488, internal_change); experiment: X-ray crystallography (3.7 A); 10 mM MgCl2, 2 mM levofloxacin added; drug-free complex; G-gate DNA bent, uncleaved; second linear B-form duplex at C-gate helices (ParC R468, K464, N461, H196); no ATP; Crystallization: protein in 20 mM Tris-HCl pH 7.5, 100 mM NaCl, 1 mM beta-mercaptoethanol, 0.05% Na azide, 10 mM MgCl2, 2 mM levofloxacin; 4I3H reservoir 50 mM; conditions: protein: recombinant; tags: C-terminal His6; chain copies: 2; 34 bp duplex; 4-bp stagger between cleavage sites
[2] = molecular target: ParE full-length;ParC55 (Streptococcus pneumoniae;Streptococcus …, UniProt Q59961;P72525 1-647;1-488, |); experiment: X-ray crystallography (6.5 A); 10 mM MgCl2, 2 mM levofloxacin; cleavage complex; Crystallization: protein in 20 mM Tris-HCl pH 7.5, 100 mM NaCl, 1 mM beta-mercaptoethanol, 0.05% Na azide, 10 mM MgCl2, 2 mM levofloxacin; 4I3H reservoir 50 mM; conditions: protein: recombinant;recombinant; chain copies: 2;2; 26mer duplex; 4-bp stagger between cleavage sites

Binder	binding result [1]	binding result [2]
B1	binds	–
B2	–	binds
